First the molecules themselves.
B1: P13-14 (peptide)
peptide: VDLPGMT
notes: synthetic truncated peptide; also called VDLPGMT
B2: P14-17 (peptide)
peptide: DLPGITR
notes: synthetic truncated peptide; also called DLPGITR
B3: P3-3 (peptide)
peptide: LNLLEL
notes: synthetic truncated peptide; also called LNLLEL
B4: P13-3 (peptide)
peptide: DLPGMTKV
notes: synthetic truncated peptide
B5: P13-6 (peptide)
peptide: TLVDLPGMTK
notes: synthetic truncated peptide
B6: P14-3 (peptide)
peptide: DLPGITRV
notes: synthetic truncated peptide
B7: P13-8 (peptide)
peptide: TLVDLPGM
notes: synthetic truncated peptide
B8: P3-1 (peptide)
peptide: LVLNLLEL
notes: synthetic truncated peptide
B9: P3-5 (peptide)
peptide: SLVLNLL
notes: synthetic truncated peptide; also called SLVLNLL
B10: P13-2 (peptide)
peptide: VDLPGMTKV
notes: synthetic truncated peptide
B11: P14-4 (peptide)
peptide: LPGITRV
notes: synthetic truncated peptide; also called LPGITRV
B12: P3-2 (peptide)
peptide: VLNLLEL
notes: synthetic truncated peptide; also called VLNLLEL
B13: P14-11 (peptide)
peptide: TLIDLPGIT
notes: synthetic truncated peptide
B14: P13-5 (peptide)
peptide: PGMTKV
notes: synthetic truncated peptide; also called PGMTKV
B15: P13-15 (peptide)
peptide: DLPGMTK
notes: synthetic truncated peptide; also called DLPGMTK
B16: P3-8 (peptide)
peptide: LVLNLLE
notes: synthetic truncated peptide; also called LVLNLLE
B17: P14-5 (peptide)
peptide: PGITRV
notes: synthetic truncated peptide; also called PGITRV
B18: P14-12 (peptide)
peptide: LIDLPGITR
notes: synthetic truncated peptide
B19: P14-1 (peptide)
peptide: LIDLPGITRV
notes: synthetic truncated peptide
B20: P13-9 (peptide)
peptide: TLVDLPG
notes: synthetic truncated peptide; also called TLVDLPG
B21: P14-9 (peptide)
peptide: TLIDLPG
notes: synthetic truncated peptide; also called TLIDLPG
B22: P13-4 (peptide)
peptide: LPGMTKV
notes: synthetic truncated peptide; also called LPGMTKV
B23: P14-8 (peptide)
peptide: TLIDLPGI
notes: synthetic truncated peptide
B24: P3-7 (peptide)
peptide: SLVLNLL
notes: as for B9
B25: P14-13 (peptide)
peptide: LIDLPGIT
notes: synthetic truncated peptide
B26: P13-7 (peptide)
peptide: TLVDLPGMT
notes: synthetic truncated peptide
B27: P13-1 (peptide)
peptide: LVDLPGMTKV
notes: synthetic truncated peptide
B28: P14-7 (peptide)
peptide: TLIDLPGIT
notes: synthetic truncated peptide
B29: P13-10 (peptide)
peptide: TLVDLP
notes: synthetic truncated peptide; also called TLVDLP
B30: P14-10 (peptide)
peptide: TLIDLP
notes: synthetic truncated peptide; also called TLIDLP
B31: P14-6 (peptide)
peptide: TLIDLPGITR
notes: synthetic truncated peptide
B32: P3-6 (peptide)
peptide: SLVLNL
notes: synthetic truncated peptide; also called SLVLNL
B33: P14-2 (peptide)
peptide: IDLPGITRV
notes: synthetic truncated peptide
B34: P3-4 (peptide)
peptide: SLVLNLLE
notes: synthetic truncated peptide
B35: P13-11 (peptide)
peptide: LVDLPGMT
notes: synthetic truncated peptide
B36: P13-12 (peptide)
peptide: VDLPGMTK
notes: synthetic truncated peptide
B37: P14-18 (peptide)
peptide: FMLQTYGQQL
notes: synthetic computer predicted peptide
B38: P24 (peptide)
peptide: LKIHAREIFD
notes: synthetic peptide; also called peptide 24
B39: P18 (peptide)
peptide: LKNKLKDLGH
notes: synthetic peptide; also called peptide 18
B40: P19 (peptide)
peptide: NLKAALENLGAL
notes: synthetic peptide; also called peptide 19; NLKAALENLGAL
B41: P4 (peptide)
peptide: RSLFLLYAL
notes: synthetic peptide; also called peptide 4; RSLFLLYAL
B42: P2 (peptide)
peptide: LLPGRTVLV
notes: synthetic peptide; also called peptide 2

This is an account of results in patent US20110070185A1 (Janssen / Centocor, published 2011).

In the first assay the target is T1, HLA-A2 molecules in T2 cells (human).
T1 construct: whole, on cells; Target of the HLA-A2 Stabilization Assay; also called MHC class I, HLA-A2; MHC/HLA-A2
In words: HLA-A2 stabilization assay on T2 cells.
As for B1, the binding result is “no binding”.

Consider B2, for which the binding result is recorded as “no binding”.

As for B3, the binding result is “no binding”.

For the molecule B4, the binding result is listed as “no binding”.

As for B5, the binding result was “no binding”.

As to B6, the binding result is “no binding”.

Turning to B7, the binding result was “no binding”.

With B8, the binding result was “no binding”.

Consider B9, for which the binding result is reported as “no binding”.

In the case of B10, the binding result is listed as “no binding”.

As for B11, the binding result is on record as “no binding”.

Turning to B12, the binding result is on record as “no binding”.

Turning to B13, the binding result was “no binding”.

As to B14, the binding result is “no binding”.

Turning to B15, the binding result is “no binding”.

For B16, the binding result is “no binding”.

In the case of B17, the binding result is listed as “no binding”.

For B18, the binding result is on record as “no binding”.

B19: the binding result is listed as “no binding”.

As for B20, the binding result is listed as “no binding”.

On to B21, for which the binding result is “no binding”.

Regarding B22, the binding result is reported as “no binding”.

As to B23, the binding result is recorded as “no binding”.

B24: the binding result was “no binding”.

B25: the binding result was “no binding”.

As for B26, the binding result is listed as “no binding”.

Turning to B27, the binding result is “no binding”.

Turning to B28, the binding result was “no binding”.

In the case of B29, the binding result was “no binding”.

With B30, the binding result was “no binding”.

For the molecule B31, the binding result is listed as “no binding”.

With B32, the binding result was “no binding”.

For B33, the binding result was “no binding”.

For the molecule B34, the binding result is “no binding”.

For the molecule B35, the binding result was “no binding”.

B36: the binding result was “no binding”.

In another assay the target is T1, HLA-A2 molecules in T2 cells. Briefly: HLA-A2 stabilization assay on T2 cells. This is another data set of the same source.
For B37, the binding result is “no binding”.

Another assay has the same target. In words: HLA-A2 stabilization assay on T2 cells, flow cytometry with FITC anti-HLA-A2. On the technique in general: Flow cytometry measures light scatter and fluorescence of single cells or particles in a stream.
Regarding B38, the binding result is “no binding (tested: up to 200 uM)”.

As for B39, the binding result was “no binding (tested: up to 200 uM)”.

Turning to B40, the binding result was “no binding (tested: up to 200 uM)”.

B41: the binding result is on record as “no binding (tested: up to 200 uM)”.

With B42, the binding result is on record as “no binding (tested: up to 200 uM)”.
